Results on 5 molecules are retold here after publication PMC10937788 (Plant Molecular Biology, 2024).

One series has as its target T1, SyArgG (Synechocystis sp. PCC 6803, UniProt P77973).
T1 construct: gene argG; synthetic ORF in pGEX-6P-1 (BamHI-XhoI); GST-tagged, tag kept (eluted with glutathione, no cleavage described); expressed in E. coli BL21(DE3)
T1 sequence (P77973 1-400): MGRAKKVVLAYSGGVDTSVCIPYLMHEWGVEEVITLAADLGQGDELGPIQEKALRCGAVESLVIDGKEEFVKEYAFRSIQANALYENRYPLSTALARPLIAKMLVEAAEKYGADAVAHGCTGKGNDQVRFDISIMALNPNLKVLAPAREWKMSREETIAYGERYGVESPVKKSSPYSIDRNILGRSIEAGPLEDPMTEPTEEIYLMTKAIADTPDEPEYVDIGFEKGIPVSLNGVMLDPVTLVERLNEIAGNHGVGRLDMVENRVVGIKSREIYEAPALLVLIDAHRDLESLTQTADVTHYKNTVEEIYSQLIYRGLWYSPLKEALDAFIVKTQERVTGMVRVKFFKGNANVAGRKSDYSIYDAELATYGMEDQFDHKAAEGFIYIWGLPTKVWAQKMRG
As to the kind of experiment: coupled NADH oxidation assay (myokinase, pyruvate kinase, lactate dehydrogenase), […] nm. The following applies: read-out: % residual activity at 5 mM. Type of series: biochemical.

Substrate in series [1]: Nc1ncnc2c1ncn2[C@@H]1O[C@H](COP(=O)(O)OP(=O)(O)OP(=O)(O)O)[C@@H](O)[C@H]1O
As to the kind of experiment: purified protein. The class given is biochemical, Synechocystis sp. PCC 6803. The following applies: 38 °C, pH 9.0 Tris-HCl, 5 mM MgCl2, 2 mM KCl, co-substrates 7.5 mM citrulline, 7.5 mM aspartate.

Substrate in series [2]: NC(=O)NCCC[C@H](N)C(=O)O
As to the kind of experiment: purified protein. The class given is biochemical, Synechocystis sp. PCC 6803. The conditions noted are these: 38 °C, pH 9.0 Tris-HCl, 5 mM MgCl2, 2 mM KCl, co-substrates 7.5 mM aspartate, 1 mM ATP.

Substrate in series [3]: N[C@@H](CC(=O)O)C(=O)O
Put plainly: purified protein. The conditions noted are these: 38 °C, pH 9.0 Tris-HCl, 5 mM MgCl2, 2 mM KCl, co-substrates 7.5 mM citrulline, 1 mM ATP.

`NCCCC[C@H](N)C(=O)O` [lysin]: the remaining activity at 5000 µM at SyArgG came out at 78.1%.

For `NCCC[C@H](N)C(=O)O` [ornithine], the remaining activity at 5000 µM at SyArgG came out at 80.1%.

Consider `N=C(N)NCCC[C@H](N)C(=O)O` [arginine], for which, at SyArgG, the remaining activity at 5000 µM is 18.4%.

For the molecule `O=C(O)CCC(=O)O` [succinate], on SyArgG, the remaining activity at 5000 µM is 92.1%.

B1: SyArgG (Synechocystis sp. PCC 6803 substr. Kazusa) (protein)
chain: T1 sequence (P77973 1-400)
notes: synthetic ORF in pGEX-6P-1 (BamHI-XhoI); GST-tagged, tag kept (eluted with glutathione, no cleavage described); expressed in E. coli BL21(DE3)
What is called Km is the substrate concentration at which the rate is half of its maximum. One may read the kcat as the maximal rate divided by the concentration of active sites. Broadly, the kcat/Km is the second-order rate constant that governs catalysis at low substrate concentration. Turning to B1, in “purified protein [1]”, the Km is 260 ± 10 µM, the kcat stood at 0.7 ± 0.002 s⁻¹ and the specificity constant (kcat/Km) was 2750 ± 120 M⁻¹ s⁻¹. Also, in “purified protein [2]”, the Km stood at 350 ± 10 µM, the kcat worked out at 0.69 ± 0.01 s⁻¹ and the kcat/Km was 1970 ± 50 M⁻¹ s⁻¹. Moreover, in “purified protein [3]”, the Km came out at 360 ± 40 µM, the kcat stood at 0.77 s⁻¹ and the kcat/Km is 2160 M⁻¹ s⁻¹.
